PMC10419456

Molecular target: LC3 (microtubule-associated protein 1 light chain 3), endogenous (mouse (endogenous in mouse brain and cultured mouse neurons)) (UniProt Q91VR7)
Assay: proximity ligation; cultured mouse cortical and cerebellar neurons (wild-type, L1_(687) and L1_(858–863) mutant), without or with L1 antibody 557 (50 µg/mL, 2 h) and without or with tat-LIRWT peptide; fixed, Duolink PLA with mouse L1 antibody C-2 and rabbit LC3 antibody; red spots per cell

fold increase of L1/LC3 proximity ligation spots with L1 antibody 557 against unstimulated neurons: 4 fold
Substance: full-length L1 (neural cell adhesion molecule L1) (from UniProt P11627 20-1260) (natural protein)
